System: K4 kissing-loop RNA reporter
Experiment: apparent KD of K4 kissing-loop reporter; higher = weaker reporter binding
Details: Eterna round: R107
Protocol: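 RNA-MaP round R107: designed RNA switches with theophylline, tryptophan, arginine or FMN aptamers are transcribed on-chip within common flanks. They are titrated with a labelled K4 kissing-loop RNA reporter in RNA-MaP buffer (100 mM Tris pH 7.5, 80 mM KCl, 4 mM MgCl2), without ligand or with the indicated ligand. Median apparent KD per design.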

[1] = input ligand: theophylline 20 uM
[2] = input ligand: tryptophan 2.4 mM
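Further: bound reporter read as fluorescence of individual clusters on recovered sequencing chips by microscopy, with normalized cluster intensities fitted with a binding model.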

Row | Sequence | apparent KD of K4 kissing-loop reporter (input ligand: FMN 200 uM) [nM] | apparent KD of K4 kissing-loop reporter (input ligand: arginine 13.2 mM) [nM] | apparent KD of K4 kissing-loop reporter (input ligand: none) [nM] | apparent KD of K4 kissing-loop reporter [1] [nM] | apparent KD of K4 kissing-loop reporter [2] [nM]
1 | GCGCGUCAUGUCAGCGGUGACACUGUCGAUACCAGUGCCGUAAGGCGCCCUUGGCAGCGACGUGCUGGAGUGAUGUUCCAGCGUU [#2 Exclusion - Theophylline A Attempt #31 (HarryS)] | 143 | 132 | 153 | 154 | 146
2 | GCGGCGGGCCAAGGAUAUAUAUUGGAGUGAUGUUGUUCAUUUAUUUGAGCUAGUGAUGUUGGUCAGAUAGAAGGUGGCCCGCCGC [whbob_Ex_FMNB__2th216] | 76.3 | 30.1 | 51.1 | 46.2 | 46.4
3 | GCGGGCCAGACGGCCGCCACUCCGGGCAGUGAUGUUGCGAAUCUUCUACUAGAGUGAUGUUCUACGAGGACCGGGUCGGAACGCG [Exclusion Tryptophan B Gf 14] | 458 | 384 | 569 | 502 | 289
4 | GCGUCUGUCGGAAGGAGCGCACUAUGGAGUGAUGUUCCAUGACCGCACAGCUUGCGGUCAGUGCAGGUAGGUCGCCGAUAGCGUU [Diestera] | 161 | 157 | 154 | 190 | 144
5 | GCUAUGGUAGGAAGGAGCGCGGACGAAAUUUAUCGAGUGAUGUUCGAAUAAUUAAAUAAAACGCAGGUAGGUCGCCUACUAUAGC [Arginine B K4 26] | 101 | 97.5 | 97.5 | 95.5 | 75.7
6 | GCUAUGGUAGGAAGGAGCGCUACCUUGUUUUUACGAGUGAUGUUCGGAAGCAGGGUGUUAAAGCAGGUAGGUCGCCUACUAUAGC [Arginine B K4 21] | 192 | 178 | 167 | 205 | 176
7 | GCUAUGGUAGGAAGGAGCGCUGCCUUGUUUUUACGAGUGAUGUUCGGAAGCAGGGUGUUAAAGCAGGUAGGUCGCCUACUAUAGC [Arginine B K4 23] | 191 | 121 | 160 | 172 | 155
8 | GCUAUGGUAGGAAGGAGCGCUUAUUUAUUUUUAAGAGUGAUGUUCGAUAGUAGAUAUUUAAAGCAGGUAGGUCGCCUACUAUAGC [Arginine B K4 13] | 122 | 159 | 108 | 136 | 71.5
9 | GGACCUCAGUGAUGUUGAGGUAACACUGAUACCAGCGACUUAAUUCGCCCUUGGCAGCAGUCCACCGAGGUAUCUGAUUAGGUCU [#23 K4 Theophylline A Exclusion] | 211 | 220 | 216 | 287 | 190
10 | GGAGAGGUCUUGUUUGGAUGUGAUUAAUGGCGAGGACCGGUACGGCCGCCACUCGGGUGAUGUUAGUGAUGUUGAUGUAGUGAUG [uyumullin] | 150 | 103 | 114 | 206 | 109
11 | GGAGCAGUGAUGUUGCUUGUAAUGCAUUCAGAGGAUAUUCGUUUGGGAAGAAGGCUGAAUCGUUCUUCGAGUGAUGUUCGAGGAU [Same State FMN A GF 16] | 154 | 154 | 156 | 148 | 138
12 | GGAGGAGAAUAUGAUACCAGCAGAGAGAGAGAGGAAGUAUAGUGAUGUUAUAUGUGAGAAUGCCCUUGGCAGCAUAACAAGAAGG [whbob_SS_Theo_B_sa88] | 121 | 225 | 194 | 116 | 122
13 | GGAUAGGACAGAGGAUAUGGGCUAGGCAAGAAUAACUUGUCUAGCAAAUCCAUGAGGAGUGAUGUUCCAGAAGGCUGUCCUAUCG [FmnBX 1 - #SwitchBubble #StraticStem #DoubleMagnetSystem] | 375 | 167 | 114 | 177 | 143
14 | GGAUAGGACAUAGGAUAUGGUAGUGAUGUUACCAAACUGGUUAAACAUGUCAGAAAACUGGCAUGACCAGAAGGAUGUCCUAUCG [FmnBX 27 U11+A75] | 85.2 | 63.2 | 66.3 | 58.8 | 63.5
15 | GGAUAGGAUAGAGGAUAUGGCUUACACAGAAAUAACUUGUUGUGUUUAUCCAUAGGGAGUGAUGUUCCAGAAGGCUGUCCUAUCG [MatMod 19 - Jieux - Exclusion - FMN B] | 743 | 197 | 210 | 232 | 161
16 | GGAUAGGAUAGAGGAUAUGGGCUAGGCAAGAAUAACUUGUCUAGCAAAUCCAUGAGGAGUGAUGUUCCAGAAGGCUAUCCUAUCG [FmnBX 1 U9+A77] | 960 | 160 | 164 | 145 | 155
17 | GGAUAGGAUAGAGGAUAUGGUAGUGAUGUUACCAAACUGGUUAAACAUGUCAGAAAACUGGCAUGACCAGAAGGCUGUCCUAUCG [FmnBX 27 U9] | 102 | 63.4 | 71 | 70.5 | 69.8
18 | GGAUCCACCAGUGAUGUUGGAGAAAACUUCAAGGAUAUGACGAAAGUCAGAAGGUGAUAGACUGGACAAAGUCCGGUCGGAUCCA [FmnA 19 U29+A57] | 552 | 729 | 454 | 527 | 462
19 | GGAUGGUAGGCGGCCGCCACUAAAUGUGAACACAUACAAGCCAGUGAUGUUGGUAUGAUGGACAAUAGGACCGGGCCUAGAUAGA [Exclusion - Tryptophan B (Freestyle 7)] | 595 | 448 | 555 | 495 | 542
20 | GGCACUUUUGGUAGAAACCAUCUACCUCUAUAGGAUAUGCCGAAAGGCAGAAGGAUAGACCUACAGAGUGAUGUUCUGCGUGCCU | 692 | 406 | 719 | 460 | 503
21 | GGCAUGGUGGCAGGAUAUCCUAAUAGAGUGAUGUUCUAGCCCUCGUAGGCGAAAGCCUACGAGGGCGGAGAAGGGCCACCAUGCC | 263 | 384 | 697 | 835 | 431
22 | GGGAGUAGUGCGGCCGCCACUGUGAAAGUAGAAGAAUAUAGUGAUGUUAUAUAGGAACAAAAGAAUAGGACCGGGCAUUAGAUUU [SSTRyptB.X] | 311 | 260 | 304 | 299 | 198
